Reference: patent US20240058465A1 (SUTRO BIOPHARMA, published 2024)
Read-outs that look alike come from different tables or passages of the source.

How the values were obtained:
[1] = biological target: T1, receptor tyrosine kinase orphan receptor 1 (ROR1) on Ntera-2 cells (human, UniProt Q01973 30-937); assay: cell-based or functional assay
[2] = biological target: T1, receptor tyrosine kinase orphan …; assay: cell-based or functional assay; remark: listed apart in the source
[3] = biological target: T1, receptor tyrosine kinase orphan …; assay: cell-based or functional assay; remark: listed apart in the source
[4] = biological target: T2, human ROR1 extracellular domain (human, UniProt Q01973 30-406); assay: SPR (Biacore T200), IgG captured by anti-human Fc, ROR1 ECD as analyte, 1:1 Langmuir fit
T2 construct: Bought recombinant protein (Acro Biosystems); also called ROR1 ECD; hROR1
Protocol: The data was fit with the Biacore™ T200 Evaluation software, using a 1-1 Langmuir binding model. KD (affinity, nM) was determined as a ratio of the kinetic rate constants calculated from the fits of the association and dissociation phases.

[5] = biological target: T3, human ROR1 Immunoglobulin domain (Ig, residues 39-151) with C-terminal HIS6 tag (human, UniProt Q01973 39-151); assay: SPR kinetic screen (Biacore), antibody captured as ligand (Fc=2-1), sample printed as ROR1 Ig, 25 C, 1:1 binding model
T3 construct: Made in HEK293 cells and purified (Acro Biosystems)

[6] = biological target: ROR1 (recombinant protein coated on the ELISA plate, Example 11) (UniProt Q01973 30-403, limits assumed); assay: ELISA: ROR1 coated on the plate, antibody titrated 3-fold from 5 ug/mL, HRP anti-human Fc, chemiluminescence (ELISA RLU)
From the text: The anti-ROR1 lead antibodies were discovered from a Fab ribosome display library that contained CDR H1, H2, and H3 diversity and utilized a constant LC (trastuzumab LC). In this example, the HCs of the lead antibodies were co-expressed with trastuzumab LC or different LCs derived from anti-CD3 antibodies: hOKT3-LC1, hSP34-LC3, hUCHT1-LC3 to determine if the anti-ROR1 HC leads would retain binding to ROR1 when assembled with anti-CD3 LCs. […] The antibodies were then purified and tested for ROR1 binding by ELISA. The ELISA assay was carried out as follows. Briefly, 2 μg/mL of ROR1 was coated to a 384-well polystyrene plate for 1 hr at 30° C. in 0.1 M bicarbonate pH8.9 buffer before it was washed and blocked with 2% BSA in PBST (PBS, 0.1% Tween20) for 1 hr. Antibody variants were diluted to 5 μg/mL and further serially diluted 3-fold before 30 μL was applied to the ELISA plates for binding ([…] Antibody binding was detected via HRP-conjugated anti-human Fc antibodies (Jackson Immunoresearch) and detection with SuperSignal ELISA Pico Chemiluminescent Substrate (Pierce).

[7] = biological target: T3, human ROR1 Immunoglobulin domain (Ig, …); assay: SPR kinetic screen (Biacore), antibody captured as ligand (Fc=4-1), sample printed as ROR1 Ig, 25 C, 1:1 binding model; fit to a flat sensorgram
[8] = biological target: T3, human ROR1 Immunoglobulin domain (Ig, …); assay: SPR kinetic screen (Biacore), antibody captured as ligand (Fc=2-1), sample printed as ROR1 Ig, 25 C, 1:1 binding model; remark: listed apart in the source
human ROR1 (hROR1) [9] = biological target: T4, human ROR1 (hROR1) (human, UniProt Q01973 30-937); assay: cell-based or functional assay
[10] = biological target: T5, human ROR1 Frizzled domain (hROR1-Fz) (human, UniProt Q01973 165-305); assay: SPR Biacore, IgG on anti-Fc, ROR1-Fz analyte
T5 construct: Acro Biosystems, made in HEK293
How it was run: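 Test antibodies captured on an anti-Fc surface (CM5 chip), then analyte bound for 180 s with 600 s dissociation at 25° C in HBS-EP+ buffer at 50 μL/min. Human ROR1 ECD, Frizzled or Kringle domain used as analyte; regeneration with 10 mM glycine pH 2.0.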

[11] = biological target: T6, human ROR1 frizzled domain (hROR1-Fz) (human, UniProt Q01973 165-305); assay: SPR kinetic screen (Biacore), antibody captured as ligand (Fc=3-1), sample ROR1 Fz, 25 C, 1:1 binding model; fit to a low response of at most about 2 on the response axis; Table 7 lists this pair as 'Not detected'
T6 construct: From Acro Biosystems

human ROR1 (hROR1) [12] = biological target: T4, human ROR1 (hROR1); assay: flow cytometry, HCT116-hROR1 cells

B1: Conjugate 46 (D04-Y180/F241/F404/K42-LP3) (antibody, human IgG1, kappa)
heavy: MEVQLVESGGGLVQPGGSLRLSCAASGFNISDYDIHWVRQAPGKGLEWVGGIDPADGSTDYADSVKGRFTISADTSKNTAYLQMNSLRAEDTAVYYCARDYGVYDYWGQGTLVTVSSASTKGPSVFPLAPSSKSTSGGTAALGCLVKDYFPEPVTVSWNSGALTSGVHTFPAVLQSSGLSLSSVVTVPSSSLGTQTYICNVNHKPSNTKVDKKVEPKSCDKTHTCPPCPAPELLGGPSVLFPPKPKDTLMISRTPEVTCVVVDVSHEDPEVKFNWYVDGVEVHNAKTKPREEQYNSTYRVVSVLTVLHQDWLNGKEYKCKVSNKALPAPIEKTISKAKGQPREPQVYTLPPSREEMTKNQVSLTCLVKGFYPSDIAVEWESNGQPENNYKTTPPVLDSDGSFLYSKLTVDKSRWQQGNVFSCSVMHEALHNHYTQKSLSLSPGK
light: MDIQMTQSPSSLSASVGDRVTITCRASQDVNTAVAWYQQKPGAPKLLIYSASFLYSGVPSRFSGSRSGTDFTLTISSLQPEDFATYYCQQHYTTPPTFGQGTKVEIKRTVAAPSVFIFPPSDEQLKSGTASVVCLLNNFYPREAKVQWKVDNALQSGNSQESVTEQDSKDSTYSLSSTLTLSKADYEKHKVYACEVTHQGLSSPVTKSFNRGEC
modifications: pAMF at K42, linked to LP3; pAMF at Y180, F241 and F404 (EU), each linked to LP3
cell killing EC50, NTERA-2 cells [1]: 0.042 nM
cell killing Span, NTERA-2 cells [1]: 51%
cell killing EC50, NTERA-2 cells [2]: 0.045 nM
Cell Killing on Ntera2 Cells, EC50, With 1 uM 2188-D04 [3]: < 10 nM
Cell Killing on Ntera2 Cells, EC50, Without 2188-D04 [3]: 0.038 nM

B2: Conjugate 47 (D04-Y180/F241/F404/K42-LP4) (antibody, human IgG1, kappa)
heavy: MEVQLVESGGGLVQPGGSLRLSCAASGFNISDYDIHWVRQAPGKGLEWVGGIDPADGSTDYADSVKGRFTISADTSKNTAYLQMNSLRAEDTAVYYCARDYGVYDYWGQGTLVTVSSASTKGPSVFPLAPSSKSTSGGTAALGCLVKDYFPEPVTVSWNSGALTSGVHTFPAVLQSSGLSLSSVVTVPSSSLGTQTYICNVNHKPSNTKVDKKVEPKSCDKTHTCPPCPAPELLGGPSVLFPPKPKDTLMISRTPEVTCVVVDVSHEDPEVKFNWYVDGVEVHNAKTKPREEQYNSTYRVVSVLTVLHQDWLNGKEYKCKVSNKALPAPIEKTISKAKGQPREPQVYTLPPSREEMTKNQVSLTCLVKGFYPSDIAVEWESNGQPENNYKTTPPVLDSDGSFLYSKLTVDKSRWQQGNVFSCSVMHEALHNHYTQKSLSLSPGK
light: MDIQMTQSPSSLSASVGDRVTITCRASQDVNTAVAWYQQKPGAPKLLIYSASFLYSGVPSRFSGSRSGTDFTLTISSLQPEDFATYYCQQHYTTPPTFGQGTKVEIKRTVAAPSVFIFPPSDEQLKSGTASVVCLLNNFYPREAKVQWKVDNALQSGNSQESVTEQDSKDSTYSLSSTLTLSKADYEKHKVYACEVTHQGLSSPVTKSFNRGEC
modifications: pAMF at K42, linked to LP4; pAMF at Y180, F241 and F404 (EU), each linked to LP4
cell killing EC50, NTERA-2 cells [1]: 0.005 nM
cell killing Span, NTERA-2 cells [1]: 96%
cell killing EC50, NTERA-2 cells [2]: 0.007 nM
Cell Killing on Ntera2 Cells, EC50, With 1 uM 2188-D04 [3]: < 10 nM
Cell Killing on Ntera2 Cells, EC50, Without 2188-D04 [3]: 0.008 nM

B3: 1987-C05 HC with Trastuzumab LC (antibody, V domains shown)
VH: EVQLVESGGGLVQPGGSLRLSCAASGFNISDYDIHWVRQAPGKGLEWVGGIDPDDGSTDYADSVKGRFTISADTSKNTAYLQMNSLRAEDTAVYYCARDYGVFDYWGQGTLVTVSS
VL: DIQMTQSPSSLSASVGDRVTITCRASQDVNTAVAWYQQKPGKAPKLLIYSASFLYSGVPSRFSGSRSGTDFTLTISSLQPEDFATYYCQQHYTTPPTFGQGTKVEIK
notes: also called 1987-C05 HC w/trstmb LC (parent IgG); SRP1987-C05
Kd [4]: 0.277 nM
koff [4]: 0.000673 s⁻¹
kon [4]: 2.43e+06 M⁻¹ s⁻¹
Kd [5]: 0.00859 nM
koff [5]: 0.000705 s⁻¹
kon [5]: 8.2e+07 M⁻¹ s⁻¹
EC50 (read off the curve) [6]: ~0.04 µg/mL

B4: 1987-C05 HC co-expressed with hSP34-LC3 light chain (antibody, V domains shown)
VH: EVQLVESGGGLVQPGGSLRLSCAASGFNISDYDIHWVRQAPGKGLEWVGGIDPDDGSTDYADSVKGRFTISADTSKNTAYLQMNSLRAEDTAVYYCARDYGVFDYWGQGTLVTVSS
VL: QTVVTQEPSLTVSPGGTVTLTCGSSTGAVTSGYYPNWFQQKPGQAPRGLIGGTKFLAPGTPARFSGSLLGGKAALTLSGVQPEDEAEYYCALWYSNRWVFGGGTQLTVTG
notes: Only variable domains are tied to this pairing; also called 1987-C05 w/hSP34 LC3; 1987-C05 variant
Kd [7]: 34.1 nM
koff [7]: 0.00133 s⁻¹
kon [7]: 38900 M⁻¹ s⁻¹

B5: 1987-C05 HC with hUCHT1-LC3 light chain (antibody, V domains shown)
VH: EVQLVESGGGLVQPGGSLRLSCAASGFNISDYDIHWVRQAPGKGLEWVGGIDPDDGSTDYADSVKGRFTISADTSKNTAYLQMNSLRAEDTAVYYCARDYGVFDYWGQGTLVTVSS
VL: DIQMTQSPSTLSASVGDRVTITCRASQDIRNYLNWYQQKPGKAPKLLIYYTSRLHSGVPSRFSGSGSGTEYTLTISSLQPDDFATYYCQQGNTLPWTFGGGTKVEIK
notes: IgG with an anti-CD3 light chain; also called 1987-C05 HC w/hUCHT1 LC3
Kd [4]: 1.14 nM
koff [4]: 0.000645 s⁻¹
kon [4]: 566000 M⁻¹ s⁻¹

B6: 1987-C05 HC co-expressed with hUCHT1-LC3 light chain (antibody, V domains shown)
VH: EVQLVESGGGLVQPGGSLRLSCAASGFNISDYDIHWVRQAPGKGLEWVGGIDPDDGSTDYADSVKGRFTISADTSKNTAYLQMNSLRAEDTAVYYCARDYGVFDYWGQGTLVTVSS
VL: DIQMTQSPSTLSASVGDRVTITCRASQDIRNYLNWYQQKPGKAPKLLIYYTSRLHSGVPSRFSGSGSGTEYTLTISSLQPDDFATYYCQQGNTLPWTFGGGTKVEIK
notes: Only variable domains are tied to this pairing; also called 1987-C05 w/hUCHT1 LC3; 1987-C05 variant
Kd [8]: 2.6 nM
koff [8]: 0.133 s⁻¹
kon [8]: 5.11e+07 M⁻¹ s⁻¹
EC50 (read off the curve) [6]: ~0.03 µg/mL

B7: SRP1944-A07 (with trastuzumab LC) (antibody, IgG1, V domains shown)
VH: EVQLVESGGGLVQPGGSLRLSCAASGFNITGYYIHWVRQAPGKGLEWVGYISPNSGSTYYADSVKGRFTISADTSKNTAYLQMNSLRAEDTAVYYCARDSRRYVRPFDYWGQGTLVTVSS
VL: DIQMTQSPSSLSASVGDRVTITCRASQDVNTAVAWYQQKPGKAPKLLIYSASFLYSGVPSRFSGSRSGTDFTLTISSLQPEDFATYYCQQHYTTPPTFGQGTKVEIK
notes: Parent of SRP2194; His/FLAG-tagged IgG1, cell-free; also called Antibody 126
Mino Nb-PBD, drug-conjugated 2° antibody Cell Killing EC50 (human ROR1 (hROR1) [9]): 0.01 nM
Kd [10]: 24.5 nM
koff [10]: 0.01 s⁻¹
kon [10]: 559000 M⁻¹ s⁻¹

B8: 1944-A07 HC co-expressed with hOKT3-LC1 light chain (antibody, V domains shown)
VH: EVQLVESGGGLVQPGGSLRLSCAASGFNITGYYIHWVRQAPGKGLEWVGYISPNSGSTYYADSVKGRFTISADTSKNTAYLQMNSLRAEDTAVYYCARDSRRYVRPFDYWGQGTLVTVSS
VL: DIQMTQSPSSLSASVGDRVTITCSASSSVSYMNWYQQKPGKAPKRLIYDTSKLASGVPSRFSGSGSGTEYTLTISSLQPEDFATYYCQQWSSNPFTFGQGTKLEIK
notes: Only variable domains are tied to this pairing
EC50 (read off the curve) [6]: ~0.05 µg/mL
Kd [11]: 17.9 nM
koff [11]: 0.0137 s⁻¹
kon [11]: 763000 M⁻¹ s⁻¹

B9: SRP2194-A05 (antibody, IgG1, V domains shown)
VH: EVQLVESGGGLVQPGGSLRLSCAASGFNIKEYHIHWVRQAPGKGLEWVGYISPNSGSTYYADSVKGRFTISADTSKNTAYLQMNSLRAEDTAVYYCARDHRRYVRPFDYWGQGTLVTVSS
VL: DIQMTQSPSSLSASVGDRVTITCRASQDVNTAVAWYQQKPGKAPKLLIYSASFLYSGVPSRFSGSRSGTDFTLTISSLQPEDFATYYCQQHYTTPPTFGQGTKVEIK
notes: His/FLAG-tagged IgG1, cell-free
Mino Nb-PBD, drug-conjugated 2° antibody Cell Killing EC50 (human ROR1 (hROR1) [9]): 0.002 nM
Bmax (MFI) (human ROR1 (hROR1) [12]): 8810 MFI
Kd (human ROR1 (hROR1) [12]): 0.31 nM
Kd [10]: 1.54 nM
koff [10]: 0.000317 s⁻¹
kon [10]: 206000 M⁻¹ s⁻¹
